{"source": "patent US20210061893A1", "binders": {"B1": {"name": "Phoenixin-20 amide, …-NH2 (peptide)", "peptide": "AGIVQEDVQPPGLKVWSDPF-NH2"}, "B2": {"name": "phoenixin-14 amide, …-NH2 (peptide)", "peptide": "DVQPPGLKVWSDPF-NH2"}}, "key": {"[1]": {"molecular_target": "phoenixin binding sites on rat pituitary adenoma cells, RC-4B/C (rat)", "test": "displacement of 50 pM 125I-Y0-Phoenixin-20 amide from RC-4B/C cells, gamma counting"}, "[2]": {"molecular_target": "antibodies raised to …-NH2 (SEQ. ID NO: 7)", "test": "RIA or EIA, competitive immunoassay with antibodies raised to SEQ ID NO: 7; standard peptide not named"}}, "note": "Where no end group is shown, it is not given here."}
{"binder": "B1", "values": [{"measurement": "IC50", "setting": "[1]", "value": 21.5, "unit": "nM"}, {"measurement": "EC50", "setting": "[2]", "value": 0.2, "unit": "ng/mL"}]}
{"binder": "B2", "values": [{"measurement": "IC50", "setting": "[1]", "value": 17.9, "unit": "nM"}]}
